# *1 amine or outer side, *2 acyl side, *3 side chain or, on linkers, in order; H or OH if unused. Bridges are numbered along the chain shown (N, C = ends). TATA = O=C(CC[*:1])N1CN(C(=O)CC[*:2])CN(C(=O)CC[*:3])C1
# T1: human Nectin-4 ECD (human, UniProt Q96NY8 32-349)
# T1 sequence (looked up): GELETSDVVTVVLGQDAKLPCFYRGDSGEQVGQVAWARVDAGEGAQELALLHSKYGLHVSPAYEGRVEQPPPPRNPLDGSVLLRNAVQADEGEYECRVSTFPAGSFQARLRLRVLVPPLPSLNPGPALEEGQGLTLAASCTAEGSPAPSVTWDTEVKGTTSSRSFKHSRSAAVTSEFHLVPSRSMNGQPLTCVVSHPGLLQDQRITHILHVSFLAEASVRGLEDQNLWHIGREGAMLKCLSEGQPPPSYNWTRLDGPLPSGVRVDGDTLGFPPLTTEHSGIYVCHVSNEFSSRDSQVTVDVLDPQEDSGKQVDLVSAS
# What was measured:
# [1] = target: human Nectin-4 ECD (human) (UniProt Q96NY8); test: SPR
# human Nectin-4 ECD = target: T1, human Nectin-4 ECD; test: fluorescence polarisation
Molecule,Kd [1],Ki (human Nectin-4 ECD)
Bicycle Toxin Conjugate BT8009 (peptide),2.5 nM,
Ac-CPFGCMKNWSWPIWCTNK-NH2 (linker 1-5-15 via TATA) [Bicycle 8],,13.5 nM
Ac-CPFGCMKNWSWPIWC-NH2 (linker 1-5-15 via TATA; SMILES CC[C@H](C)[C@@H]1NC(=O)[C@@H]2CCCN2C(=O)[C@H](Cc2c[nH]c3ccccc23)NC(=O)[C@H](CO)NC(=O)[C@H](Cc2c[nH]c3ccccc23)NC(=O)[C@H](CC(N)=O)NC(=O)[C@H](CCCCN)NC(=O)[C@H](CCSC)NC(=O)[C@@H]2CSCCC(=O)N3CN(CN(C3)C(=O)CCSC[C@H](NC(C)=O)C(=O)N3CCC[C@H]3C(=O)N[C@@H](Cc3ccccc3)C(=O)NCC(=O)N2)C(=O)CCSC[C@@H](C(N)=O)NC(=O)[C@H](Cc2c[nH]c3ccccc23)NC1=O) [Bicycle 10],,17.6 nM
